{
  "source": "paper PMC9957047",
  "about": "“A Role for the Interactions between Polδ and PCNA Revealed by Analysis of pol3-01 Yeast Mutants” (Genes, 2023)",
  "biological_target": "T1, PCNA (Pol30) immunoprecipitated in the co-IP of Figure 2C (S. cerevisiae, UniProt P15873 1-258)",
  "T1 construct": "Pol30 (PCNA), S. cerevisiae; homotrimeric clamp of three copies of Pol30; No tag is named for PCNA in this experiment; the methods precipitate with an anti-PCNA antibody; source: S. cerevisiae, in lysate",
  "T1 sequence (looked up)": "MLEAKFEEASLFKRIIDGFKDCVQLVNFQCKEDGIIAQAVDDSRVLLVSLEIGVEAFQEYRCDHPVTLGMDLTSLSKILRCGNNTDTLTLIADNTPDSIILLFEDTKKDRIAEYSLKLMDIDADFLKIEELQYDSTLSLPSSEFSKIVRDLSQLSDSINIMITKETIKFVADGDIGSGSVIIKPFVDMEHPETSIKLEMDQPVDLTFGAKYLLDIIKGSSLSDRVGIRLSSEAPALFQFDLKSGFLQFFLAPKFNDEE",
  "experiment": "co-IP; PCNA immunoprecipitated from yeast extract (methods: 2 μg anti-PCNA antibody, overnight at 4 °C, washes with lysis buffer at 220 mM NaCl); level of FLAG-tagged Pol3 or Pol3-01 co-IPed measured (Figure 2C)",
  "settings": "partners not purified",
  "data": [
    {"binder": "FLAG-tagged Pol3-01 (Pol3-01-Flag) of the co-IP of Figure 2C (natural protein, S. cerevisiae, UniProt P15436 1-1097, looked up, Pol3, catalytic subunit of DNA polymerase delta, S. cerevisiae, pol3-01 allele (D321A, E323A); the tags may be swapped in the text; source: S. cerevisiae, in lysate) MSEKRSLPMVDVKIDDEDTPQLEKKIKRQSIDHGVGSEPVSTIEIIPSDSFRKYNSQGFKAKDTDLMGTQLESTFEQELSQMEHDMADQEEHDLSSFERKKLPTDFDPSLYDISFQQIDAEQSVLNGIKDENTSTVVRFFGVTSEGHSVLCNVTGFKNYLYVPAPNSSDANDQEQINKFVHYLNETFDHAIDSIEVVSKQSIWGYSGDTKLPFWKIYVTYPHMVNKLRTAFERGHLSFNSWFSNGTTTYDNIAYTLRLMVDCGIVGMSWITLPKGKYSMIEPNNRVSSCQLEVSINYRNLIAHPAEGDWSHTAPLRIMSFAIACAGRIGVFPEPEYDPVIQIANVVSIAGAKKPFIRNVFTLNTCSPITGSMIFSHATEEEMLSNWRNFIIKVDPDVIIGYNTTNFDIPYLLNRAKALKVNDFPYFGRLKTVKQEIKESVFSSKAYGTRETKNVNIDGRLQLDLLQFIQREYKLRSYTLNAVSAHFLGEQKEDVHYSIISDLQNGDSETRRRLAVYCLKDAYLPLRLMEKLMALVNYTEMARVTGVPFSYLLARGQQIKVVSQLFRKCLEIDTVIPNMQSQASDDQYEGATVIEPIRGYYDVPIATLDFNSLYPSIMMAHNLCYTTLCNKATVERLNLKIDEDYVITPNGDYFVTTKRRRGILPIILDELISARKRAKKDLRDEKDPFKRDVLNGRQLALKISANSVYGFTGATVGKLPCLAISSSVTAYGRTMILKTKTAVQEKYCIKNGYKHDAVVVYGDTDSVMVKFGTTDLKEAMDLGTEAAKYVSTLFKHPINLEFEKAYFPYLLINKKRYAGLFWTNPDKFDKLDQKGLASVRRDSCSLVSIVMNKVLKKILIERNVDGALAFVRETINDILHNRVDISKLIISKTLAPNYTNPQPHAVLAERMKRREGVGPNVGDRVDYVIIGGNDKLYNRAEDPLFVLENNIQVDSRYYLTNQLQNPIISIVAPIIGDKQANGMFVVKSIKINTGSQKGGLMSFIKKVEACKSCKGPLRKGEGPLCSNCLARSGELYIKALYDVRDLEEKYSRLWTQCQRCAGNLHSEVLCSNKNCDIFYMRVKVKKELQEKVEQLSKW", "values": [
      {"measurement": "fold reduction in co-IP against Pol3", "result": 4, "unit": "fold"}
    ]}
  ]
}
